Series [1] has as its target soluble human NKR-P1 ectodomain (C-type lectin-like domain, Gly90-Ser225), glycosylated with uniform GlcNAc2Man5 N-glycans (human) (UniProt Q12918). The experiment in a line: AUC; sedimentation velocity of equimolar mixtures of glycosylated NKR-P1 with LLT1 or LLT1^SIM at increasing concentrations, 20 °C, SEC buffer; isotherms of weight-average S fitted to A + B ⇔ AB or A + B ⇔ AB + B ⇔ BAB (A the LLT1 dimer, B the NKR-P1 monomer).

Series [2] is described as follows: crystal structure comparison of homodimers. The settings on record: glycan lost; control: glycosylated NKR-P1 (GlcNAc2Man5), 5MGR.
The nature of a further series: CD spectroscopy. The settings on record: glycan lost; control: wild-type NKR-P1 ectodomain.
Series [3] can be described thus: analytical ultracentrifugation, sedimentation velocity. The settings on record: glycan lost; control: wild-type NKR-P1 ectodomain.
A further series has as its target AICL (Homo sapiens) (UniProt Q92478). The following applies: cited from earlier work.
Series [4] deals with the molecule itself. The experiment in a line: AUC; sedimentation velocity of the single glycosylated proteins, 48,000 rpm, 20 °C, 10 mM HEPES pH 7.5, 150 mM NaCl, 10 mM NaN3.
Series [5] concerns the target T1, soluble human NKR-P1 ectodomain (C-type lectin-like domain, Gly90-Ser225), glycosylated with uniform … (human, UniProt Q12918 90-225, Asn-GlcNAc2Man5 N-glycans; potential N-glycosylation sites Asn116, Asn157, Asn169).
T1 construct: residues at the N-terminus of the secreted protein, left from the N-terminal secretion leader of pOPINGGTneo; human NKR-P1 (CD161), extracellular CTL domain, Gly90-Ser225; For MST this protein was labelled with Atto 488 NHS-ester at pH 6.5; Monomeric in solution (AUC), a non-covalent helix α1-centered homodimer in the crystal; Ile168 stands in the structure; also called CD161; NKR-P1_glyco; …
T1 sequence: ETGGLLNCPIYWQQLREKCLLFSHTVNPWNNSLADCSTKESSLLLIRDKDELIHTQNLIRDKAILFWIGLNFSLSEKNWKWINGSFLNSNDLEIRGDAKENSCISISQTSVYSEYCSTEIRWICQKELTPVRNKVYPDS
Kind of series: AUC; sedimentation velocity of equimolar mixtures of glycosylated NKR-P1 with LLT1 or LLT1^SIM at increasing concentrations, 20 °C, SEC buffer; isotherms of weight-average S fitted to A + B ⇔ AB or A + B ⇔ AB + B ⇔ BAB (A the LLT1 dimer, B the NKR-P1 monomer). The settings on record: both partners purified.

The target in series [6] is T1, soluble human NKR-P1 ectodomain (C-type …). The experiment in a line: not stated; overall Kd of this study as told in the discussion; the experiment behind it (AUC or MST) is not named there. The following applies: both partners purified.

Here are results for five molecules from article PMC9418145, “Structure of the human NK cell NKR-P1:LLT1 receptor:ligand complex reveals clustering in the immune synapse” (Nature Communications, 2022).

Chain of AICL (Homo sapiens) (Q92478 whole entry): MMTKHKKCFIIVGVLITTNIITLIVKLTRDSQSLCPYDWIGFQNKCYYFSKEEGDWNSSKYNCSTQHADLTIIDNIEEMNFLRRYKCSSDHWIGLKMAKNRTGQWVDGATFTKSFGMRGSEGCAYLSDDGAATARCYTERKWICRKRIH

Consider “LLT1^SIM, N120R, R153E, K169A secondary interaction mode triple mutant of the soluble LLT1 ectodomain (from UniProt Q9UHP7 72-191) (domain or fragment)”, for which the fold weaker overall affinity than the wild-type LLT1 in series [1] came out at 3 fold. Regarding NKR-P1 (CD161): Endo F1, the “structure_or_conformation, other: pairwise Cα RMSD” value in series [2] is recorded as “no change”. In the case of NKR-P1 (CD161): S159A, the stability_or_folding result in the series “CD spectroscopy” was “no change”. Besides, the oligomerisation result in series [3] is “increases”.

As to NKp80 (from UniProt Q9NZS2), the dissociation constant Kd with AICL (Homo sapiens) was 2.3 µM.

B1: stabilized H176C form of the soluble human LLT1 ectodomain (Gln72-Val191), glycosylated (domain or fragment, UniProt Q9UHP7 72-191, looked up)
chain: QAACPESWIGFQRKCFYFSDDTKNWTSSQRFCDSQDADLAQVESFQELNFLLRYKGPSDHWIGLSREQGQPWKWINGTEWTRQFPILGAGECAYLNDKGASSARCYTERKWICSKSDIHV
modifications: GlcNAc2Man5 glycans
notes: human LLT1, soluble ectodomain Gln72-Val191 with the stabilising mutation H176C; also called wild-type LLT1; soluble LLT1; source: HEK293S GnTI- cells, transiently transfected, secreted, purified (IMAC on Talon, SEC)
For B1, the “stoichiometry N” value in series [4] was determined as 2. Moreover, the “KD of the primary interaction mode” value in series [5] came out at 50 µM. The Kd in series [6] came to 90 µM.

Usually Kd stands for the equilibrium constant for the complex coming apart. The stoichiometry N is the number of molecules, sites or subunits per partner or assembly.
